The target in data set [1] is MBP-OsMADS1 (Oryza sativa, UniProt Q10PZ9 1-257). Nature of the data set: EMSA; cold probe competition at 20x and 200x; 20 uL with 2 uL biotin probe, 5 ug protein, 2 uL 10x binding buffer (composition not given), 1 uL 50% glycerol; 30 min at room temperature; 6% native PAGE, 0.5x TBE. The note with it: protein: recombinant; tags: N-terminal MBP; chain copies: 2; blunt.

In data set [2] the target is MBP-OsMADS17 (Oryza sativa, UniProt Q7XUN2 1-249). The data set is described as above. The note with it: protein: recombinant; tags: N-terminal MBP; chain copies: 2; blunt.
Chain of MBP-OsMADS17 (Q7XUN2 whole entry): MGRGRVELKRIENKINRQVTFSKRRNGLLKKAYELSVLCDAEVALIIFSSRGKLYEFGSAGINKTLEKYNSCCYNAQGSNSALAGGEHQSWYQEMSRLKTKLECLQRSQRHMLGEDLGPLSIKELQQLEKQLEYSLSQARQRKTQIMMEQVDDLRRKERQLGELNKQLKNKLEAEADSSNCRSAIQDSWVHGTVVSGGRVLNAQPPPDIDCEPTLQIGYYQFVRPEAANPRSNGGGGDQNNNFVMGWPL

Chain of MBP-OsMADS1 (Q10PZ9 whole entry): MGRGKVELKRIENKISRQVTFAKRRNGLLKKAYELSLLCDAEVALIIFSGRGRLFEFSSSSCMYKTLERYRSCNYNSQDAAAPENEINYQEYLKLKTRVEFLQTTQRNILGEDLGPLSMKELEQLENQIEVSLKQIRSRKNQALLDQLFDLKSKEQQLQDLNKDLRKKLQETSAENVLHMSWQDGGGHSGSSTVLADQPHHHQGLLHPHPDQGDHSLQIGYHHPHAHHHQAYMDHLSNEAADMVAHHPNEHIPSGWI

B1: EMSA-probe-OsMADS17 (dsDNA)
DNA 1: TCTCTGCTCCTTTATATGGGGTTACA
DNA 2: TGTAACCCCATATAAAGGAGCAGAGA
Take B1: the binding result in data set [1] is “binds”.

B2: EMSA-probe-OsAP2-39 (dsDNA)
DNA 1: AAACCTTACCAAATTTTGGTAAAGTTGCCAAAAAAATGGCTATATTTA
DNA 2: TAAATATAGCCATTTTTTTGGCAACTTTACCAAAATTTGGTAAGGTTT
With B2, the binding result in data set [2] is “binds”.

Source of the values: PMC10227085, “OsMADS17 simultaneously increases grain number and grain weight in rice”.
